# Data taken from the DeepSol protein solubility set.
# Experiment: soluble on expression in E. coli; label from the status in PepcDB or PDB records
row,Sequence,soluble on expression in E. coli
1,MTKENICIVFGGKSAEHEVSILTAQNVLNAIDKDKYHVDIIYITNDGDWRKQNNITAEIKSTDELHLENGEALEISQLLKESSSGQPYDAVFPLLHGPNGEDGTIQGLFEVLDVPYVGNGVLSAASSMDKLVMKQLFEHRGLPQLPYISFLRSEYEKYEHNILKLVNDKLNYPVFVKPANLGSSVGISKCNNEAELKEGIKEAFQFDRKLVIEQGVNAREIEVAVLGNDYPEATWPGEVVKDVAFYDYKSKYKDGKVQLQIPADLDEDVQLTLRNMALEAFKATDCSGLVRADFFVTEDNQIYINETNAMPGFTAFSMYPKLWENMGLSYPELITKLIELAKERHQDKQKNKYKIDRSHHHHHH,soluble
2,MSLKVIATDMDGTLLDARGQLDLPRLEKILDQLDQRGIRFVIATGNEIHRMRQLLSPLVDRVVLVVANGARIFENNELIQAQTWDDAIVNKALTHFKGRACQDQFVVTGMKGDFVKEGTIFTDLESFMTPEMIEKFYQRMQFVDELTSDLFGGVLKMSMVVGEERLSSVLEEINALFDGRVRAVSSGYGCIDILQAGIHKAWGLEELLKRWDLKSQEIMAFGDSENDVEMLEMAGIAYAMENADEKAKAVATALAPANSQGGVYQVLENWLEKGEGHHHHHH,soluble
3,MSLESLFQHIIFTEHQAEESRRLMREVRSEITRCREKIKKATEELNEEKIKLESKVQQFFEKSFFLQLLKAHENALEKQYSEITNHRNMLLQTFEAIKKQMIEEEDKFIKEITDFNNDYEITKKRELLMKENVKIEISDLENQANMLKSEMKSMEHDSSQLNELQKQKSELIQELFTLQRKLKVFEDEENESICTTKYLEAEKIKISEKPQNDTECLRLKKELELYKEDDMESVYEALQTEIEFLELTLAQKDLQESK,not soluble
4,MSMLKIGDIVTRKSHGQDIYFIVTDIQNKDSSKPVYILRGLFYRIIVDAFEDDLVKKDSRSTRINLRRDLTMARSNAYRQIFTSRCFLFSKPRQRPGKVLHIDSSESFLKMCRNLYKEAGITSREYLAPESEQPNIIKRALAETKPDILVVTGHDSLKKGSDPNLLDSYRNSKYFIECVKEARKYQPDYDKLCIFAGACQSYFEAIMQAGANFASSPGRININALDPAIVSEKVALTNKDNYVTPEEVSKLTISGSKGIGGIKTRGHLTVL,soluble
5,GHMPPWTARQDSTTGLYAPVTPAGRVLLDRLAAHLPRIRSTAAEHDRDGTFPTDTFDALRKDGLMGATVPAELGGLGVDRLYDVAVALLAVARADASTALALHMQLSRGLTLGYEWRHGDERARTLAERILRGMVAGDAVVCSGIKDHHTAVTTLRPDGAGGWLLSGRKTLVSMAPVGTHFVINARTDGTDGPPRLASPVVTRDTPGFTVLDNWDGLGMRASGTVDIVFDDCPIPADHVLMRDPVGARNDAVLAGQTVSSVSVLGVYVGVAQAAYDTAVAALERRPEPPQAAALTLVAEIDSRLYALRATAGSALTAADALSADLSGDMDERGRQMMRHFQCAKLAVNRLAPEIVSDCLSLVGGASYTAGHPLARLLRDVQAGRFMQPYAYVDAVDFLSAQALGIERDNNYMSTWAKRSGGNGKSADAAGPRRPTPTSR,soluble
6,KIYSGRILIPLQHILKELKRIRANSLNRRLKTTGNNDELEDMIETLNSMLDRLDSAFKAEKSFVSHASHELNNPITAIQGECEISLLKERSTGEYIEALQRISSESKRISNLIRHLLFLSRQDEELIKSNMEAMSLPDMLNDLIKMNERIRLHYQETGKAAT,not soluble
7,MVQDQIRYDILVQDALRGVIRKVLSEVAKAGLPGSHHFFITFLTNAPGVKISTRLKSRYPEQMTIVLQHQFRDLNVSETAFEVTLSFREVSEKLVIPFHSIQVFYDPVAAFEAAFDLPSNLNSKEGENLENIASTPVILSDTQKKEKKFPKEQISKTNKDSSNNDTKQSADVVSLDSFRKKLEHHHHHH,soluble
8,MGSDKIHHHHHHMKQIDLVYRTAFAELAQRTFDAQFQADFPLEGRFVAVPVKGRNYWYFDLPTPEGKDKRRYVGPQDDVDITARVKAHRQVKDDIRERRKLVGMLLRSGGMSAPDRFAGEVTKALADAGLFRLRALLVGSVAFSCYSGLLGVRLPGTSMQTGDADFAQDFAISAEVEDSLPPILDLLRSIDSTFRAVPHQADNAKVVAFSNSVNYRVEFLTTNRGSDDYTGKPSPMPALGGASAENLRFLDFLIYEPVRTVLLHREGVSVNIPAPERYAIHKLIVASRRRTDALGRAKRDKDLVQASLLCEALVETRQSHLLADAYREAWTRGEAWQEGILSGLVLMPDNGKLALANALGVTVDRLGKA,not soluble
9,MGSDKIHHHHHHMSKRKLTTKFEEEPLNFGTGMWNVGLTPNVCRCTLLLPTSCMTCLVGTGRTASGRWPATYVPFDESAISELKRYASFIAISNHSDLLSDPSGSRRFICINITGRIRNGVAINYLQPYAQAVQELREGECFYFSPEEEAVLMENNQEFELQTPVGHLFQQYFRSADEGEKCETLLAVDILGRIQKKSGFKLSATKIVHLGRILRKLGVPCKKMKNGNFYCVVEL,not soluble
10,MSLYKGYLIDLDGTIYKGKDRIPAGETFVHELQKRDIPYLFVTNNTTRTPESVKEMLAQNFNIDTPLSTVYTATLATIDYMNDLGLEKTVYVVGEAGLKEAIKAAGYVEDKEKPAYVVVGLDWQVDYEKFATATLAIQKGAHFIGTNPDLNIPTERGLLPGAGSLITLLEVATRVKPVYIGKPNAIIMDKAVEHLGLEREELIMVGDNYLTDIRAGIDNGIPTLLVTTGFTKAEEVAGLPIAPTHVVSSLAEWDFDENEGHHHHHH,soluble
11,MDKQLEAARKFLKDNVRQMVDFSQTAQNRRVPPPPIEKPMPEEAKTIPLPVIGKAKSAGNIDLWSAIGQRESCRFYADEPMSLDELSLLLWATQGVRLKLDAGHALRTVPSAGCRHAFETYLCVLNVESLDKGIYRYLPLEHALLCSHAPEKLESRIVRATLGQRFTGDAAVVFVWTAIPYRMEWRYGLAAHKVIALDAGHVCQNLYLACEAIGAGTCAIAAYDQDEMDRLLDVDGEEEFTIYLAPVGKKG,not soluble
12,MRLSILLLVAAHVANGLFGFGEKKTTQAPKISLGSEISIPHTDEDQDTGEIVIPFNDPSTTTTRRRTATTTGIPVISVGGIGLDRTRSTVDVRSFTTTINPRFTAATKRLPSSDRHSSSGCPNRIDAYTFGPDSDYAFYEQQVFKISNNRISDRTTLVEEFKDGPNQVNGALYDPEREILWLVDGRSVYGYKKDGSDNWKLQSVFPKELPSSIGFTPEAAVRWHNKHQLLLSNGGKFALYDEYWNKSLMTGRTESYFENLPDRVRGISTWNSQGHAHIYTQSLVFEYDSEMKKVTGDGVPLGDFWRC,not soluble
13,SLRHFGKRLRVSSSQPFRRSFNPKGEPMSTQIFVNLPVKNLNQSIEFFTQLGFQFNSQFTDETATCMIVSESIFVMLLTHEKFKMFTPKEICDATKSTEVLVCLSFDSREQVDEMVRLAVTAGGTTYNEPQDHGFMYGHGFADLDGHIWEIIYMEPSAINLGEG,soluble
14,MKPTAIFLMGPTASGKTDLAIQLRSQLPVEVISVDSALIYKGMDIGTAKPSKEELALAPHRLIDILDPSESYSAMNFRDDALREMADITAQGKIPLLVGGTMLYYKALIEGLSPLPSADENIRAELEQKAAQQGWAALHTELAKIDPISAARINPSDSQRINRALEVFYITGKSLTELTEEKGEALPYDFVQFAIAPQDRHVLHERIEQRFHKMIELGFQAEVEKLYARGDLNINLPSIRCVGYRQMWEYLQGDYAYEEMIFRGICATRQLAKRQLTWLRGWKTPIQWLDSLQPQQAKETVLRHLDSYQKGLEHHHHHH,soluble
15,MSKTFKDYGTGSGKDVIADEKPFSILLMGVDTGSSERTSKWEGNSDSMILVTVNPKTKKTTMTSLERDILVKLSGSKTNDQTGYDAKLNAAYAAGGAKMAIMTVQDMLDIKIDKYVQINMEGLVQLVDAVGGITVTNHFDFPISIEEHEPEFTASVEPGTHKINGEQALVYSRMRYDDPDGDYGRQKRQREVISKVLKKILALDSVSKYRKILSAVSKNMQTNIEISSSTIPKLLGYSDALKSIRTYQLKGEGTTIDGGSYQLVTSKELLKAQNRIKGQLGLKKSTAENLKTTASLYENFYGGDTSIYDSSSSASDYSSSGNYSGSSSDYGSSSSYGSNSSSGSSSDYSGQNSYNQGNYQQPAAGTGIGNLEHHHHHH,soluble
16,MSSVKRSLKQEIVTQFHCSAAEGDIAKLTGILSHSPSLLNETSENGWTALMYAARNGHPEIVQFLLEKGCDRSIVNKSRQTALDIAVFWGYKHIANLLATAKGGKKPWFLTNEVEECENYFSKTLLDRKSEKRNNSDWLLAKESHPATVFILFSDLNPLVTLGGNKESFQQPEVRLCQLNYTDIKDYLAQPEKITLIFLGVELEIKDKLLNYAGEVPREEEDGLVAWFALGIDPIAAEEFKQRHENCYFLHPPMPALLQLKEKEAGVVAQARSVLAWHSRYKFCPTCGNATKIEEGGYKRLCLKEDCPSLNGVHNTSYPRVDPVVIMQVIHPDGTKCLLGRQKRFPPGMFTCLAGFIEPGETIEDAVRREVEEESGVKVGHVQYVACQPWPMPSSLMIGCLALAVSTEIKVDKNEIEDARWFTREQVLDVLTKGKQQAFFVPPSRAIAHQLIKHWIRINPNL,soluble
17,GEEGNSSELPLSAEDAKKLTELAENVLQGWDVQAEKIDVIQGNQMALVWKVHTDSGAVCLKRIHRPEKKALFSIFAQDYLAKKGMNVPGILPNKKGSLYSKHGSFLFVVYDWIEGRPFELTVKQDLEFIMKGLADFHTASVGYQPPNGVPIFTKLGRWPNHYTKRCKQMETWKLMAEAEKEDPFSQLYLQEIDGFIEDGLRIKDRLLQSTYVPWTEQLKKSPNLCHQDYGTGNTLLGENEQIWVIDLDTVSFDLPIRDLRKMIIPLLDTTGVWDDETFNVMLNAYESRAPLTEEQKQVMFIDMLFPYELYDVIREKYVRKSALPKEELESAFEYERIKANALRQLI,soluble
18,MIPLKYLQAYPASLQDQVRQLIAENRLGEYLERRYPGRHDVQSDKALYAYTMNLKQEHLRNAPGLDKVLYDNKLDVVQRALGLHTAISRVQGGKLKAKKEIRVASLFKDAAPEFLRMIVVHELAHLKESEHNKAFYQLCQYMLPDYHQLEFDLRVYLTWKSLAAALEHHHHHH,not soluble
19,MAHHHHHHMSEEKGAYLVFDNASNGTLFIVWKKEKVENALMFIKPTKEVPEFKFVNRNGKNELIRNLQSDKKLFYSGICQFVKEAKDIKGKLTLLQHFDSSFPIKVDLYFLKGSKVMPLNTGEPFVVQDIDAMSVLPKGSSSLKVKTMAKDMFVSRGNTEGASISF,not soluble
20,MSTLRVACVIPTYNGCQDLARLLDSLEIQSAPFDTLIVDSSSSDGTYELALARCANVLRIDSRDFNHGGTRQLMVERNADYDLYVFMTQDAYLEDAEGLARIVAPFADPQVGAVCGRQLPHLDASPLASHARLFNYPPTSQVKSLADVPALGIKTAFMSNSFSAYRREALMQVGGFPNHVILSEDMYVGAKMLLAGWKVAYEGSACCRHSHNYSLKEEFRRYFDIGVFHAREPWIRQAFGGAGGEGLRYVQSELRFLGPGRLGQWPGSLLRNAVKLFAYKLSQQERYLPLGLKRKLGMYKRYWDSPYALEHHHHHH,soluble
21,MTKVTREEVEHIANLARLQISPEETEEMANTLESILDFAKQNDSADTEGVEPTYHVLDLQNVLREDKAIKGIPQELALKNAKETEDGQFKVPTIMNEEDALEHHHHHH,not soluble
